The numbers were not newly measured in publication PMC10103170, which cites them from elsewhere.

As a reminder, the Kd is the concentration at which binding is half-saturated.

For the series, the target named is Ubiquitin (Homo sapiens) (UniProt P0CG48).

Sequence of ALIX V domain (Q8WUM4 360-702): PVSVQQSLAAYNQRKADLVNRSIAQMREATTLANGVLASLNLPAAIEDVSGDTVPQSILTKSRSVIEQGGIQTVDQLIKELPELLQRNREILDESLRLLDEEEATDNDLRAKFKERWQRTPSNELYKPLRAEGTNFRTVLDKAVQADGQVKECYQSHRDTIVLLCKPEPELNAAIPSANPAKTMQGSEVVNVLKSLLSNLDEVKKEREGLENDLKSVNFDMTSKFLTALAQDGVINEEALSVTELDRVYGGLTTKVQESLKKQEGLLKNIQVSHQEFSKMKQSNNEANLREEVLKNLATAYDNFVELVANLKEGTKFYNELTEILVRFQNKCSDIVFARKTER

As to ALIX V domain (from UniProt Q8WUM4), the Kd was 120 µM.
